Results on 2 substances are retold here after PMC4478124.

What all share (test): SPR
Background: In SPR one partner is held on a chip, and binding of the other changes the refractive index at the surface.

The target in test [1] is MBP-P66M fusion protein (wild-type middle portion of Borrelia burgdorferi P66, a.a. 170-404) (Borrelia burgdorferi) (UniProt H7C7N8).
For test [2], the target named is MBP-P66M-D205A,D207A fusion protein (Borrelia burgdorferi) (UniProt H7C7N8).
Test [3] concerns the target MBP-P66M-Del202-208 fusion protein (Borrelia burgdorferi) (UniProt H7C7N8).

In the case of “purified recombinant mouse integrin αvβ3 (carrier free) (from UniProt P43406 31-1044; O54890 26-717) (receptor)”, the kon was 112000 M⁻¹ s⁻¹ in test [1] and 1450 M⁻¹ s⁻¹ in test [2]. Moreover, the dissociation constant Kd in test [2] is 20.3 µM; in test [3] it was 264 µM.

Turning to “purified recombinant human integrin αvβ3 (carrier free) (from UniProt P06756 31-1048; P05106 27-718) (receptor)”, the kon in test [1] is 321000 M⁻¹ s⁻¹; in test [2] it was 710 M⁻¹ s⁻¹. Further, the values for the dissociation constant Kd in test [2] and in test [3] were 29.3 µM and 178 µM, respectively.

Broadly, the kon is the second-order rate constant of association. The term Kd denotes the free concentration of one partner at which half of the binding sites on the other are occupied at equilibrium, for simple one-to-one binding. Higher therefore signals weaker binding.
